Measured values from PMC3386944.

Target: HER3 receptor (human (endogenous in AU565)) (UniProt P21860)
UniProt P21860, sequence (P21860 20-1342): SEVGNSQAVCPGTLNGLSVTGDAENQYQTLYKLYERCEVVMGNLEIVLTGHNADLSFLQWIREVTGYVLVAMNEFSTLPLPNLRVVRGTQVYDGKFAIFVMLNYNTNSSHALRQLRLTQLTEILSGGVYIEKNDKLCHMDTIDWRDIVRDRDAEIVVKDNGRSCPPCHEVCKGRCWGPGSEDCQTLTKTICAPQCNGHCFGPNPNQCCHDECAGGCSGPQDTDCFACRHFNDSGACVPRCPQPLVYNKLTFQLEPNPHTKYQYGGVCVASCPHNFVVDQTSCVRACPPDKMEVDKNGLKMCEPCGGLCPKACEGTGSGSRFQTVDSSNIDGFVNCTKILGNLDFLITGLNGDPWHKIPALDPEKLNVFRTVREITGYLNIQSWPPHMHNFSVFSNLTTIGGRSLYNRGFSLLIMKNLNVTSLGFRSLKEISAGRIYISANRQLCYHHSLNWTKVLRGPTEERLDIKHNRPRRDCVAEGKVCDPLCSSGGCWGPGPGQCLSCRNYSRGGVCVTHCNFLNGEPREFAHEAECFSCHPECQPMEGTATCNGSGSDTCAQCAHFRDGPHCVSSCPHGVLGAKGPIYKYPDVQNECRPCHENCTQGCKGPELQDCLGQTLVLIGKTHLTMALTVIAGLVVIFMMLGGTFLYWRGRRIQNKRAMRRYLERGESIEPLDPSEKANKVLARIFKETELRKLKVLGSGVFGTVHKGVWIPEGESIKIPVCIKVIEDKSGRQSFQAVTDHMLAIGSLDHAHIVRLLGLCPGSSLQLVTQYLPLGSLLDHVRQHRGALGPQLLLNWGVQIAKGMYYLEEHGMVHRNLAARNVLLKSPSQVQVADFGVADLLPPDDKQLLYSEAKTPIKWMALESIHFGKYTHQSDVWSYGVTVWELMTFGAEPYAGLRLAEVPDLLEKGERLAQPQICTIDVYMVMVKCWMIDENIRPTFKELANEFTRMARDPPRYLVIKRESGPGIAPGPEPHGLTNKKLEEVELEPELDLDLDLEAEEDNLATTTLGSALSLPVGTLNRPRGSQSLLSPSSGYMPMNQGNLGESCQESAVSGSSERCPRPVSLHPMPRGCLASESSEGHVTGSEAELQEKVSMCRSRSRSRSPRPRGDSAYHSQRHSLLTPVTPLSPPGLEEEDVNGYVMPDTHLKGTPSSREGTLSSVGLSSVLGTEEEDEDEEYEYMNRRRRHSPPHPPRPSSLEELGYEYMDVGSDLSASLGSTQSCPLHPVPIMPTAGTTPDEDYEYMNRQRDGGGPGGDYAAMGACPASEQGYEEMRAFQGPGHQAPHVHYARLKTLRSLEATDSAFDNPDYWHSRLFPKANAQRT

IC50 of Affibody molecule Z05416 (no letters) for inhibition of growth of MCF-7 cells induced by 40 pM HRG (EGF domain construct), 5 days, CCK-8: 19 nM | IC50 of Affibody molecule Z05416 (no letters) for inhibition of growth of SKBR-3 cells induced by 40 pM HRG (EGF domain construct), 5 days, CCK-8: 73 nM | IC50 of Affibody molecule Z05417 (no letters) for inhibition of growth of MCF-7 cells induced by 40 pM HRG (EGF domain construct), 5 days, CCK-8: 15 nM | IC50 of Affibody molecule Z05417 (no letters) for inhibition of growth of SKBR-3 cells induced by 40 pM HRG (EGF domain construct), 5 days, CCK-8: 65 nM
Substance: heregulin (HRG, NRG1-β1/HRG1-β1 ECD domain), biotinylated (ligand)
